Experimental data taken from article PMC5362085, “Differential effects of DEAE negative mode chromatography and gel-filtration chromatography on the charge status of Helicobacter pylori neutrophil-activating protein” (PLoS ONE, 2017).

Target: the molecule itself
Test: native gel or EMSA; native-PAGE (10% gel) of the load (soluble E. coli lysate), unbound, wash and elution fractions of DEAE Sepharose and DEAE Sephadex batch chromatography, 20 mM Tris-HCl, 50 mM NaCl, pH 7.0 to 9.0 at 25°C; unbound fractions more than 90% pure

B1: Helicobacter pylori neutrophil-activating protein (natural protein)
chain: MKTFEILKHLQADAIVLFMKVHNFHWNVKGTDFFNVHKATEEIYEEFADMFDDLAERIVQLGHHPLVTLSEAIKLTRVKEETKTSFHSKDIFKEILEDYKYLEKEFKELSNTAEKEGDKVTVTYADDQLAKLQKSIWMLQAHLA
notes: HP-NAP, product of the napA gene (HP0243) amplified from genomic DNA of H. pylori strain 26695; subunit of approximately 17 kDa; It states no tag and speaks of recombinant HP-NAP in its native form; its own experiments show only an oligomer; also called HP-NAP; recombinant HP-NAP; source: E. coli BL21(DE3) (pET42a-NAP, IPTG); in soluble lysate and DEAE batch chromatography fractions; copies: 12
binding result: binds
